Measurements as given in US20190077860A1 (EISAI R AND D MANAGEMENT, published 2019).

T1: human EphA7 extracellular region-SEAP-His protein (human, UniProt Q15375 28-555)
T1 construct: extracellular domain; also called hEphA7-SEAP-His
T1 sequence (looked up): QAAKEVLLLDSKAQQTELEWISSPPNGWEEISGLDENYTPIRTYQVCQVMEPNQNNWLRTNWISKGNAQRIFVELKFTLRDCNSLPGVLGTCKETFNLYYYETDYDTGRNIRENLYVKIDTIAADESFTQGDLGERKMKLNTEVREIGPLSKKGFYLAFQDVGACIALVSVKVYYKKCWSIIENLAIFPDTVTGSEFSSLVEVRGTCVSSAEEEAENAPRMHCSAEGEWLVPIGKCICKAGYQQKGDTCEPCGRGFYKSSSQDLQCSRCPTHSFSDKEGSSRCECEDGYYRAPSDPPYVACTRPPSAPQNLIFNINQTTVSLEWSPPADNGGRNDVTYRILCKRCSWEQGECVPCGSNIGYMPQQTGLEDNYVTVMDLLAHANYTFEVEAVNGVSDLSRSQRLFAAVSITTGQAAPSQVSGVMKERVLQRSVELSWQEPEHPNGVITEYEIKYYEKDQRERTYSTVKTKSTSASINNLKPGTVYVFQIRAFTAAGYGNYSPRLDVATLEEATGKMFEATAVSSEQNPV

T2: human EphB1 extracellular region-SEAP-His protein (human, UniProt P54762 18-540)
T2 construct: extracellular domain; also called hEphB1-SEAP-His
T2 sequence (looked up): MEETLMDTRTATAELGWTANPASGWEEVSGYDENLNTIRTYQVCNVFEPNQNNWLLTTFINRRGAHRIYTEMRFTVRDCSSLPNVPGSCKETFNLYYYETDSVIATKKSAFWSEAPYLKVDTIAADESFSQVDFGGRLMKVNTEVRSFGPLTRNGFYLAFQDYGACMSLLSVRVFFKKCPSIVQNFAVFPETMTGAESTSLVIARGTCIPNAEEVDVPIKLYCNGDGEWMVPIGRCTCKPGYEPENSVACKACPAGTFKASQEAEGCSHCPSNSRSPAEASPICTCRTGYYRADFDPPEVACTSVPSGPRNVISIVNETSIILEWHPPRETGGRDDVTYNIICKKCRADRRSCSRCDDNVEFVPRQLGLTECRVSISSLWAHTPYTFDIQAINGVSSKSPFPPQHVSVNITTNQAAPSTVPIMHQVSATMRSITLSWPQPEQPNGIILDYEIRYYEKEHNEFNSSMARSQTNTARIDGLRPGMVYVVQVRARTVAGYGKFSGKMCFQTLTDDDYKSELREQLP

T3: human EphB4 extracellular region-SEAP-His protein (human, UniProt P54760 16-539)
T3 construct: extracellular domain; also called hEphB4-SEAP-His
T3 sequence (looked up): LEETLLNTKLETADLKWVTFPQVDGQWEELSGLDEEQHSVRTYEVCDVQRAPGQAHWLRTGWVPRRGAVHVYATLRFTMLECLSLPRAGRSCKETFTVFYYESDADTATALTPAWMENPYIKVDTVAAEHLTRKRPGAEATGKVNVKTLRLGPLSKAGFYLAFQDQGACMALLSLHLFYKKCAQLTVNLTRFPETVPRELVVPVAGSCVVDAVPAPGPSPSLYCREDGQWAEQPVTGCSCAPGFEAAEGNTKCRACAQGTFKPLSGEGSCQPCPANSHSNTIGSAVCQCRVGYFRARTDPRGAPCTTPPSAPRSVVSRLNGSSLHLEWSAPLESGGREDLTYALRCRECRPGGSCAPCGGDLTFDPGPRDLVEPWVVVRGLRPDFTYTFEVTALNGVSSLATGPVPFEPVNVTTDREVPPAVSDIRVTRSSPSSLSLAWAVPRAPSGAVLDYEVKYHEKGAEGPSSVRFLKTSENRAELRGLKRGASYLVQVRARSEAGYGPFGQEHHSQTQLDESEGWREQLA

T4: human EphB6 extracellular region-SEAP-His protein (human, UniProt O15197 32-594)
T4 construct: extracellular domain; also called hEphB6-SEAP-His
T4 sequence (looked up): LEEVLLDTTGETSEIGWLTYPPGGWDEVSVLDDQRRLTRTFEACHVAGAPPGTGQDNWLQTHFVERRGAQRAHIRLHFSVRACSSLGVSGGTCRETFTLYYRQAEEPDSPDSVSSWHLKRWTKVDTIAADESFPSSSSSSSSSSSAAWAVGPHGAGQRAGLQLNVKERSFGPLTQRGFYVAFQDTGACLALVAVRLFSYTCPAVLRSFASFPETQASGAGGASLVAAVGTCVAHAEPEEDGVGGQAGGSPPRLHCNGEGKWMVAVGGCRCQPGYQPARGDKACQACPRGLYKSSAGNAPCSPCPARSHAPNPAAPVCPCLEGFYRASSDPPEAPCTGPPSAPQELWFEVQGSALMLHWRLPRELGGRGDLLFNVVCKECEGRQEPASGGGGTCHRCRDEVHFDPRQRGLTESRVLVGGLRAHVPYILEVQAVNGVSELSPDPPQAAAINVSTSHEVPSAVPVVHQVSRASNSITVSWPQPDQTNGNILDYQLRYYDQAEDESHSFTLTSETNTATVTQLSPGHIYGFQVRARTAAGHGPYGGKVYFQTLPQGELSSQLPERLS


Assays:
Experiment in all cases: ELISA
[1] = target: T1, human EphA7 extracellular …
Protocol: (§1) Each well of a 96-well plate (Nunc) was coated with a rabbit anti-6-His antibody (Bethyl Laboratories). Each well was […] After washing with 0.05% Tween 20/PBS (Nacalai Tesque) three times, the SEAP-His protein of human EphA1, EphA2, EphA3, EphA4, EphA5, EphA6, EphA7, EphA8, EphA10, EphB1, EphB2, EphB3, EphB4, or EphB6 was added (final concentration: 1 nM) to each well and incubated at room temperature for 1 hour. After washing three times, the humanized antibody was added to each well and incubated at room temperature for 1 hour. After washing three times, a horseradish peroxidase-labeled donkey […] antibody (Jackson ImmunoResearch Laboratories) was added thereto and incubated at room temperature for 1 hour. After washing three times, TMB Microwell Peroxidase Substrate System (Kirkegaard & Perry Laboratories (KPL)) was added to each well. After confirmation of moderate color development, an equal amount of a reaction stopping solution (1N H₂SO₄, Wako Pure Chemical Industries) was added to each well. The absorbance at 450 nm was read using a microplate reader (Thermo Fisher Scientific).

[2] = target: T2, human EphB1 extracellular …
Protocol: as §1

[3] = target: T3, human EphB4 extracellular …
Protocol: as §1

[4] = target: T4, human EphB6 extracellular …
Protocol: as §1

A450 as % of hEphA4-SEAP-His [1]	A450 as % of hEphA4-SEAP-His [2]	A450 as % of hEphA4-SEAP-His [3]	A450 as % of hEphA4-SEAP-His [4]	Binder
4.8%	4.9%	5.2%	5.2%	humanized antibody No. 76 (antibody, human IgG1, kappa, human Ig kappa; also called L1-4/HA2) heavy: QVQLVQSGSELKKPGASVKVSCKASGYTFTDYSMHWVRQAPGQGLKWMGWINTETGEPTYAQGFTGRFVFSLDTSVSTAYLQISSLKAEDTAVYYCARIPLYYYGSRYWYFDVWGQGTTVTVSSASTKGPSVFPLAPSSKSTSGGTAALGCLVKDYFPEPVTVSWNSGALTSGVHTFPAVLQSSGLYSLSSVVTVPSSSLGTQTYICNVNHKPSNTKVDKRVEPKSCDKTHTCPPCPAPPAAAPSVFLFPPKPKDTLMISRTPEVTCVVVDVSHEDPEVQFNWYVDGVEVHNAKTKPREEQFNSTFRVVSVLTVVHQDWLNGKEYKCKVSNKGLPAPIEKTISKTKGQPREPQVYTLPPSREEMTKNQVSLTCLVKGFYPSDIAVEWESNGQPENNYKTTPPMLDSDGSFFLYSKLTVDKSRWQQGNVFSCSVMHEALHNHYTQKSLSLSPG light: DIQMTQSPSSLSASVGDRVTITCRASENIYRNLAWYQQKPGKAPKLLVYAATNLADGVPSRFSGSGSGTDYTLTISSLQPEDFATYYCQHFWGTPWTFGQGTKVEIKRTVAAPSVFIFPPSDEQLKSGTASVVCLLNNFYPREAKVQWKVDNALQSGNSQESVTEQDSKDSTYSLSSTLTLSKADYEKHKVYACEVTHQGLSSPVTKSFNRGEC
5.3%	5.6%	5.5%	5.6%	humanized antibody No. 69 (antibody, human IgG1, kappa, human Ig kappa; also called L1-4/HK4) heavy: QIQLVQSGSELKKPGASVKVSCKASGYTFTDYSMHWVRQAPGQGLKWMGWINTETGEPTYADDFKGRFVFSLDTSVSTAYLQISSLKAEDTAVYYCARIPLYYYGSRYWYFDVWGQGTTVTVSSASTKGPSVFPLAPSSKSTSGGTAALGCLVKDYFPEPVTVSWNSGALTSGVHTFPAVLQSSGLYSLSSVVTVPSSSLGTQTYICNVNHKPSNTKVDKRVEPKSCDKTHTCPPCPAPPAAAPSVFLFPPKPKDTLMISRTPEVTCVVVDVSHEDPEVQFNWYVDGVEVHNAKTKPREEQFNSTFRVVSVLTVVHQDWLNGKEYKCKVSNKGLPAPIEKTISKTKGQPREPQVYTLPPSREEMTKNQVSLTCLVKGFYPSDIAVEWESNGQPENNYKTTPPMLDSDGSFFLYSKLTVDKSRWQQGNVFSCSVMHEALHNHYTQKSLSLSPG light: DIQMTQSPSSLSASVGDRVTITCRASENIYRNLAWYQQKPGKAPKLLVYAATNLADGVPSRFSGSGSGTDYTLTISSLQPEDFATYYCQHFWGTPWTFGQGTKVEIKRTVAAPSVFIFPPSDEQLKSGTASVVCLLNNFYPREAKVQWKVDNALQSGNSQESVTEQDSKDSTYSLSSTLTLSKADYEKHKVYACEVTHQGLSSPVTKSFNRGEC
4.7%	4.6%	4.9%	4.7%	humanized antibody No. 67 (antibody, human IgG1, kappa, human Ig kappa; also called L1-4/HA4) heavy: QIQLVQSGSELKKPGASVKVSCKASGYTFTDYSMHWVRQAPGQGLKWMGWINTETGEPTYAQGFTGRFVFSLDTSVSTAYLQISSLKAEDTAVYYCARIPLYYYGSRYWYFDVWGQGTTVTVSSASTKGPSVFPLAPSSKSTSGGTAALGCLVKDYFPEPVTVSWNSGALTSGVHTFPAVLQSSGLYSLSSVVTVPSSSLGTQTYICNVNHKPSNTKVDKRVEPKSCDKTHTCPPCPAPPAAAPSVFLFPPKPKDTLMISRTPEVTCVVVDVSHEDPEVQFNWYVDGVEVHNAKTKPREEQFNSTFRVVSVLTVVHQDWLNGKEYKCKVSNKGLPAPIEKTISKTKGQPREPQVYTLPPSREEMTKNQVSLTCLVKGFYPSDIAVEWESNGQPENNYKTTPPMLDSDGSFFLYSKLTVDKSRWQQGNVFSCSVMHEALHNHYTQKSLSLSPG light: DIQMTQSPSSLSASVGDRVTITCRASENIYRNLAWYQQKPGKAPKLLVYAATNLADGVPSRFSGSGSGTDYTLTISSLQPEDFATYYCQHFWGTPWTFGQGTKVEIKRTVAAPSVFIFPPSDEQLKSGTASVVCLLNNFYPREAKVQWKVDNALQSGNSQESVTEQDSKDSTYSLSSTLTLSKADYEKHKVYACEVTHQGLSSPVTKSFNRGEC
4.7%	4.4%	4.6%	4.7%	humanized antibody No. 75 (antibody, human IgG1, kappa, constant region: human IgG1 CH1 and hinge, human IgG2 CH2 and CH3 with V234A, G237A, no C-terminal Lys; human Ig kappa; also called L1-4/HA1) heavy: QVQLVQSGSELKKPGASVKVSCKASGYTFTDYSMHWVRQAPGQGLEWMGWINTETGEPTYAQGFTGRFVFSLDTSVSTAYLQISSLKAEDTAVYYCARIPLYYYGSRYWYFDVWGQGTTVTVSSASTKGPSVFPLAPSSKSTSGGTAALGCLVKDYFPEPVTVSWNSGALTSGVHTFPAVLQSSGLYSLSSVVTVPSSSLGTQTYICNVNHKPSNTKVDKRVEPKSCDKTHTCPPCPAPPAAAPSVFLFPPKPKDTLMISRTPEVTCVVVDVSHEDPEVQFNWYVDGVEVHNAKTKPREEQFNSTFRVVSVLTVVHQDWLNGKEYKCKVSNKGLPAPIEKTISKTKGQPREPQVYTLPPSREEMTKNQVSLTCLVKGFYPSDIAVEWESNGQPENNYKTTPPMLDSDGSFFLYSKLTVDKSRWQQGNVFSCSVMHEALHNHYTQKSLSLSPG light: DIQMTQSPSSLSASVGDRVTITCRASENIYRNLAWYQQKPGKAPKLLVYAATNLADGVPSRFSGSGSGTDYTLTISSLQPEDFATYYCQHFWGTPWTFGQGTKVEIKRTVAAPSVFIFPPSDEQLKSGTASVVCLLNNFYPREAKVQWKVDNALQSGNSQESVTEQDSKDSTYSLSSTLTLSKADYEKHKVYACEVTHQGLSSPVTKSFNRGEC
